Experimental data reported in patent publication US20190248863A1 (published 2019).

Legend:
Assay in all cases: cell-based or functional assay
human RXFP1 = target: T1, human RXFP1 (human, UniProt Q9HBX9 1-757)
T1 sequence (looked up): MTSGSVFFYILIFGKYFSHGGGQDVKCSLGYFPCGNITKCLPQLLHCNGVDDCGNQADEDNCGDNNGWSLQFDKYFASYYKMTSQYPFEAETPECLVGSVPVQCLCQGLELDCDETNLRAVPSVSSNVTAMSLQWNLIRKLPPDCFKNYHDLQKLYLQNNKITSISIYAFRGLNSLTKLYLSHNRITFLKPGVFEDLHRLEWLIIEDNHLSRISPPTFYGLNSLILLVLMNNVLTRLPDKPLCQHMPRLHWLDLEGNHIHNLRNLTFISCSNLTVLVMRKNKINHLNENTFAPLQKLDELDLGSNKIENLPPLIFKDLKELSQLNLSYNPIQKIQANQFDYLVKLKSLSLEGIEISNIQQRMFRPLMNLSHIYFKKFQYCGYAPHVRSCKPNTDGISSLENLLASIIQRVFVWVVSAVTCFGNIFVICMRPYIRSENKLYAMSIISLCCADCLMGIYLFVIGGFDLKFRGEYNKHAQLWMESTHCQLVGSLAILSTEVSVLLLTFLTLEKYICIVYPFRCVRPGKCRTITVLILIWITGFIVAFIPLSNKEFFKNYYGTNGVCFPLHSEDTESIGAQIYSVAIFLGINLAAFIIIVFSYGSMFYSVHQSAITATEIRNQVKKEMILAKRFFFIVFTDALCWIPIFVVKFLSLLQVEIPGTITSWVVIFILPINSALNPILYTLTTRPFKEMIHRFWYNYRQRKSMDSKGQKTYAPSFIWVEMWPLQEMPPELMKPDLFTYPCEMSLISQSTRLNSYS

cynomolgus monkey RXFP1 = target: T2, cynomolgus monkey RXFP1 (cynomolgus monkey, UniProt H9ERA2 1-757 (rhesus entry))
T2 sequence: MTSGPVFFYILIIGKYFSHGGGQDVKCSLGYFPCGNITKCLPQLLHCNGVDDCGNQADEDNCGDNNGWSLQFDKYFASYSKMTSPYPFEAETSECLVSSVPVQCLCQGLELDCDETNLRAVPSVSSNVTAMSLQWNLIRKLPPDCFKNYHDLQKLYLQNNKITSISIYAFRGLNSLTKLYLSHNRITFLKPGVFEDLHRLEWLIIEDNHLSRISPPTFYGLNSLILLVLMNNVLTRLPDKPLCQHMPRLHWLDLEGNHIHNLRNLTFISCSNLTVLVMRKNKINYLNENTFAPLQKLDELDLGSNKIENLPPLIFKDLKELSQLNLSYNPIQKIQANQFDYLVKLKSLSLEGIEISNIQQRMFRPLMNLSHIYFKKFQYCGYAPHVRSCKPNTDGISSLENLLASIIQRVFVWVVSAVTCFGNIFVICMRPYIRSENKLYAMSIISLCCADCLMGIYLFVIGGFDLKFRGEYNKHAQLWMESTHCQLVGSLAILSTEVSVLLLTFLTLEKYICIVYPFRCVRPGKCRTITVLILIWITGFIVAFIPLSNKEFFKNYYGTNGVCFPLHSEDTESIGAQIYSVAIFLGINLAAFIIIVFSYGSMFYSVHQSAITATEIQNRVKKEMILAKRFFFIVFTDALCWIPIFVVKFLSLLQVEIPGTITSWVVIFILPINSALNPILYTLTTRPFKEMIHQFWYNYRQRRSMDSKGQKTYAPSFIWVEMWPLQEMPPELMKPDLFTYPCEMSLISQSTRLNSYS

dog RXFP1 = dog RXFP1 (dog)
rat RXFP1 = target: T3, rat RXFP1 (rat, UniProt Q6R6I6 1-758)
T3 sequence (looked up): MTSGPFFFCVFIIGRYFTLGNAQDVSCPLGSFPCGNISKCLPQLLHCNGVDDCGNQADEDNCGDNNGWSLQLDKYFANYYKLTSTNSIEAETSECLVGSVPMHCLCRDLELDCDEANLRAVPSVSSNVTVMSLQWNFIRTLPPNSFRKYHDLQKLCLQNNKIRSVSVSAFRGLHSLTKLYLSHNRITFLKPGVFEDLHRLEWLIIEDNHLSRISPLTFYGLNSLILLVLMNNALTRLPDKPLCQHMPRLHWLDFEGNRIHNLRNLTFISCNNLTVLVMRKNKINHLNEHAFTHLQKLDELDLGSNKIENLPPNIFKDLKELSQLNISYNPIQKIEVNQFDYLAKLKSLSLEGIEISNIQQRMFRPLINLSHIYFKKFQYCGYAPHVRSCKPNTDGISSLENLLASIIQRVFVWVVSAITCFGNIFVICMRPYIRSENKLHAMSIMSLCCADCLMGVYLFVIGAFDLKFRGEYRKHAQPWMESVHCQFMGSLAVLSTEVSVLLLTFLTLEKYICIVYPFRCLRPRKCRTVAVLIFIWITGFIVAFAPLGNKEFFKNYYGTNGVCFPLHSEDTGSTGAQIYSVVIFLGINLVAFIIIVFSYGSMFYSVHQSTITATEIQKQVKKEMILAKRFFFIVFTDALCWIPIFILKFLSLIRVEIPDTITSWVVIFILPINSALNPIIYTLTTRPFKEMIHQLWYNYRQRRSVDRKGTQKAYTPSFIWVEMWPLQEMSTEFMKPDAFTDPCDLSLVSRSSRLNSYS

mouse RXFP1 = target: T4, mouse RXFP1 (mouse, UniProt Q6R6I7 1-758)
T4 sequence (looked up): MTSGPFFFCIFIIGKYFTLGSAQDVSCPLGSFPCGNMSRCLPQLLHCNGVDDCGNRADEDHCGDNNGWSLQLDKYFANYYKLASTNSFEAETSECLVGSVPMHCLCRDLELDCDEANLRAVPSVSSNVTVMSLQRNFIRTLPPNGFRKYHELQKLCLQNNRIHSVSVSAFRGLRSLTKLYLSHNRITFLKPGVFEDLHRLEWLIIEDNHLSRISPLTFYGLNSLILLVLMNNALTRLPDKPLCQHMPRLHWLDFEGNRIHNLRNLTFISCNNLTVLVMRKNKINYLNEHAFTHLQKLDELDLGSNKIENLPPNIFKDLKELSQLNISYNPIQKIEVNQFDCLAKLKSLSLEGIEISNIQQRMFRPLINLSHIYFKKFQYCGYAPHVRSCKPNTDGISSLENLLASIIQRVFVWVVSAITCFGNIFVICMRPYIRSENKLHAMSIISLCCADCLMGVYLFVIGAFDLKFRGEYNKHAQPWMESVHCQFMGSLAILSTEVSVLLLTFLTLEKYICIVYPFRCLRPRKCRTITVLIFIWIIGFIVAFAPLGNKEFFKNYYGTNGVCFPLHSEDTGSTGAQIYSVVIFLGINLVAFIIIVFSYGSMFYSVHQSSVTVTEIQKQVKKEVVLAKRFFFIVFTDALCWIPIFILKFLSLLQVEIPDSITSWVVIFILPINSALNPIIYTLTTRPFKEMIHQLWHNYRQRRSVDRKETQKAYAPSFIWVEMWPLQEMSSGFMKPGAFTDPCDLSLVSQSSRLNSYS

B1: RLX-A-AQ1-20KPEG (ligand)
chain 1: XLYSALANKCCHVGCTKRSLARFC
chain 2: ASWMEEVIKLCGRELVRAQIAICGMSTWS
modifications: para-acetylphenylalanine (pAcF, X) at position 1 of the A chain, linked to a 20 kDa PEG via an oxime linkage
For B1, the “RLX-A-AQ1-20KPEG Potency Ratio (hRXFP1-1.0), cAMP assay” value (from here on “RLX-A-AQ1-20KPEG Potency Ratio”) (human RXFP1) was 1 fold, the “RLX-A-AQ1-20KPEG Potency Ratio” value (cynomolgus monkey RXFP1) was 1.6 fold and the “RLX-A-AQ1-20KPEG Potency Ratio” value (dog RXFP1) was 4.7 fold. The “RLX-A-AQ1-20KPEG Potency Ratio” value (rat RXFP1) was 0.34 fold and the “RLX-A-AQ1-20KPEG Potency Ratio” value (mouse RXFP1) was 0.66 fold.
